Results as given in paper PMC8576529, “Handling Several Sugars at a Time: a Case Study of Xyloglucan Utilization by Ruminiclostridium cellulolyticum” (mBio, 2021).
Where two headings read alike, the source gives them in different places.

What was measured:
[1] = biological target: T1, Cellobiose phosphorylase CbpA (Ruminiclostridium cellulolyticum, UniProt B8I421); assay: cellobiose phosphorolysis, HPAEC-PAD; assay type: biochemical; settings: competitive; cellobiose 0.05 to 10 mM varied, 50 mM phosphate, pH 7.0, 37°C; read-out: Inhibitor
T1 construct: gene Ccel_2109; C-terminal 6xHis tag, produced in E. coli, purified to homogeneity
T1 sequence (B8I421 1-811): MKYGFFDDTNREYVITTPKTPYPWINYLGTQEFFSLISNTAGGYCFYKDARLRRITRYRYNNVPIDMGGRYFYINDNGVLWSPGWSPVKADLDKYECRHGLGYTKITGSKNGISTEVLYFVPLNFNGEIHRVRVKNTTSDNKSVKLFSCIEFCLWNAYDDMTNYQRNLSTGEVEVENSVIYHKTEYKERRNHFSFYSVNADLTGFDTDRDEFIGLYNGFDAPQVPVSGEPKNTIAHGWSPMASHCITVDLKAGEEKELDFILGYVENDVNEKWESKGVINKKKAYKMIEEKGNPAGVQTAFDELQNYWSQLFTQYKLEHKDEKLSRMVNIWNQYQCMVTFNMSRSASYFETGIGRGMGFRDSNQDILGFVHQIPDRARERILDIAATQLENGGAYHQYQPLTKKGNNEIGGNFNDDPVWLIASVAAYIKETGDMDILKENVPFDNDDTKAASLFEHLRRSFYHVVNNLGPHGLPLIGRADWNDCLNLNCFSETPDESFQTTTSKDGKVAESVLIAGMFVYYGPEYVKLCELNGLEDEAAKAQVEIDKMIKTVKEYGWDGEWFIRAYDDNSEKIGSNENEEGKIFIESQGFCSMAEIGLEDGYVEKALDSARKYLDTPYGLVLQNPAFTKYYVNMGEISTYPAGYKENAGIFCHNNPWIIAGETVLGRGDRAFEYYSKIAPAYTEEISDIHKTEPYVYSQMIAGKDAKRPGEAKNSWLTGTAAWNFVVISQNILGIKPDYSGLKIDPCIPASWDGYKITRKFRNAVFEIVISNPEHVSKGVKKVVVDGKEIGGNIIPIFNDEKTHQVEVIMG
Excerpt: cellobiose phosphorolysis, HPAEC-PAD on Cellobiose phosphorylase CbpA

[2] = biological target: T2, α-Xylosidase Xyl31A (Ruminiclostridium cellulolyticum, UniProt B8I9A6); assay: isoprimeverose hydrolysis, HPAEC-PAD; assay type: biochemical; settings: competitive; substrate isoprimeverose 0.5 to 8 mM, 50 mM phosphate pH 6.0, 37°C; read-out: Mean enzyme concn (mM) ± SD^a / α-Xylosidase (Xyl31A)
T2 construct: gene Ccel_1004; cytosolic enzyme, purified as formerly reported
Excerpt: isoprimeverose hydrolysis, HPAEC-PAD on α-Xylosidase Xyl31A

[3] = biological target: T3, β-Glucosidase Glu3A; assay: pNPβGlu hydrolysis, A400; assay type: biochemical, Ruminiclostridium cellulolyticum; settings: competitive; substrate p-nitrophenyl-β-D-glucoside, 50 mM phosphate pH 7.0, 37°C; read-out: Mean enzyme concn (mM) ± SD^a / β-Glucosidase (Glu3A)
T3 construct: cytosolic enzyme, purified as formerly reported
Excerpt: pNPβGlu hydrolysis, A400 on β-Glucosidase Glu3A

[4] = biological target: T4, β-Galactosidase Gal42A; assay: pNPβGal hydrolysis, A400; assay type: biochemical, Ruminiclostridium cellulolyticum; settings: substrate p-nitrophenyl-β-D-galactoside, 50 mM phosphate pH 7.0, 37°C, read-out: Mean enzyme concn (mM) ± SD^a / β-Galactosidase Gal42A
T4 construct: cytosolic enzyme, purified as formerly reported
Excerpt: pNPβGal hydrolysis, A400 on β-Galactosidase Gal42A

[5] = biological target: T5, Galactokinase (Ruminiclostridium cellulolyticum, UniProt B8I0X2); assay: galactose phosphorylation, HPLC-RI; assay type: biochemical; settings: 5 mM GTP, 25 mM MgCl2, 25 mM HEPES pH 7.0, 37°C; read-out: Substrate(s) (fixed cosubstrate concn)^a
T5 construct: gene galK; C-terminal 6xHis tag (pET28a-3238), E. coli BL21(DE3)
T5 sequence (B8I0X2 1-397): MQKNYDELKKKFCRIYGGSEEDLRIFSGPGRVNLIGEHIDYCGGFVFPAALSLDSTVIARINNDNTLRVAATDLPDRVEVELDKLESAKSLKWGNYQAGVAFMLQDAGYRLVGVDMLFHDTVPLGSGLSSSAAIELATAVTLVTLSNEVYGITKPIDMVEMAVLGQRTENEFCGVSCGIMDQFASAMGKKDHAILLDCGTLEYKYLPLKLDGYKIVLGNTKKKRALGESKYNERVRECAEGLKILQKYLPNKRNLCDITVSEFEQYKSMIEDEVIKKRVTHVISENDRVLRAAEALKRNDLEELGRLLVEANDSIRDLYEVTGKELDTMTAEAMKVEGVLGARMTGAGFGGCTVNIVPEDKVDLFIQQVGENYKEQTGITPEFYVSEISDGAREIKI
Excerpt: (§1) galactose phosphorylation, HPLC-RI on Galactokinase

[6] = substrate: Nc1nc2c(ncn2[C@@H]2O[C@H](COP(=O)(O)OP(=O)(O)OP(=O)(O)O)[C@@H](O)[C@H]2O)c(=O)[nH]1; assay: galactose phosphorylation, HPLC-RI; assay type: biochemical, Ruminiclostridium cellulolyticum; settings: 100 mM galactose, 25 mM MgCl2, 25 mM HEPES pH 7.0, 37°C
Excerpt: as §1

[7] = substrate: Nc1ncnc2c1ncn2[C@@H]1O[C@H](COP(=O)(O)OP(=O)(O)OP(=O)(O)O)[C@@H](O)[C@H]1O; assay: galactose phosphorylation, HPLC-RI; assay type: biochemical, Ruminiclostridium cellulolyticum; settings: 100 mM galactose, 25 mM MgCl2, 25 mM HEPES pH 7.0, 37°C
Excerpt: as §1

[8] = substrate: Nc1nc2c(ncn2[C@@H]2O[C@H](COP(=O)(O)OP(=O)(O)OP(=O)(O)O)[C@@H](O)[C@H]2O)c(=O)[nH]1; assay: purified protein; assay type: biochemical, Ruminiclostridium cellulolyticum; settings: 5 mM glucose, 25 mM MgCl2, 25 mM HEPES pH 7.0, 37°C
Excerpt: (§2) glucose phosphorylation, HPLC-RI on Hexokinase

[9] = substrate: Nc1ncnc2c1ncn2[C@@H]1O[C@H](COP(=O)(O)OP(=O)(O)OP(=O)(O)O)[C@@H](O)[C@H]1O; assay: purified protein; assay type: biochemical, Ruminiclostridium cellulolyticum; settings: 5 mM glucose, 25 mM MgCl2, 25 mM HEPES pH 7.0, 37°C, ATP tested only up to 20 mM (below Km)
Excerpt: as §2

[10] = substrate: O=P(O)(O)O[C@H]1O[C@H](CO)[C@@H](O)[C@H](O)[C@H]1O; assay: isomerization, HPAEC-PAD; assay type: biochemical, Ruminiclostridium cellulolyticum; settings: 25 mM HEPES pH 7.0, 37°C
Excerpt: isomerization, HPAEC-PAD on α-Phosphoglucomutase

[11] = substrate: O=C(CO)[C@@H](O)[C@H](O)CO; assay: isomerization, HPLC-RI; assay type: biochemical, Ruminiclostridium cellulolyticum; settings: 10 mM MgCl2, 25 mM HEPES pH 7.0, 37°C
Excerpt: isomerization, HPLC-RI on Xylose isomerase

T2 sequence (B8I9A6 entry or part of it): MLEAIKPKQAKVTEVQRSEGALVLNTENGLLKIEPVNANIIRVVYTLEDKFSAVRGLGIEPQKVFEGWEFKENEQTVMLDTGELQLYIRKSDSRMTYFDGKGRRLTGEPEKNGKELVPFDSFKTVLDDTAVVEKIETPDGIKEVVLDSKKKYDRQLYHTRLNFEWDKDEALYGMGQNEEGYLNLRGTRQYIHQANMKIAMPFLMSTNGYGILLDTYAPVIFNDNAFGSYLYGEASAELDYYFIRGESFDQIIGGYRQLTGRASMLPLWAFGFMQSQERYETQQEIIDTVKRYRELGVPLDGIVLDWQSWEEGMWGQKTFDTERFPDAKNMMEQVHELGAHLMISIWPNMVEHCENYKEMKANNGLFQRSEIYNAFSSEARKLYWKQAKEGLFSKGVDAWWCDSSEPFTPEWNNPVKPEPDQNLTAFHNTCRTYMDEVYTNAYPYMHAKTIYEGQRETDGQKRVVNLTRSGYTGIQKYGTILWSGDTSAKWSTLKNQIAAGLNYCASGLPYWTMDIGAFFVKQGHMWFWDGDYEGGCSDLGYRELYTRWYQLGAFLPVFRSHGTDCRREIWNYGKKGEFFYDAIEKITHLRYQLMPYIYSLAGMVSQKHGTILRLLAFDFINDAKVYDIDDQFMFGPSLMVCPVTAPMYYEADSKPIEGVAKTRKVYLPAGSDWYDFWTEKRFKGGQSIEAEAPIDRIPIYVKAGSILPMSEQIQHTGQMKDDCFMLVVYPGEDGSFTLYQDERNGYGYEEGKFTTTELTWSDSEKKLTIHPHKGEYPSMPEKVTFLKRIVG

`OC[C@H]1OC(O)[C@H](O)[C@@H](O)[C@@H]1O` (stereo partly shown) [Glucose] gave a Ki [1] of 0.68 ± 0.04 mM, a Ki [2] of 1.83 ± 0.42 mM and a Ki [3] of 3.99 ± 0.33 mM.

Work on `OC[C@H]1O[C@@H](O[C@H]2[C@H](O)[C@@H](O)C(O)O[C@@H]2CO)[C@H](O)[C@@H](O)[C@@H]1O` (stereo partly shown) [Cellobiose] yielded a Ki ([4]; noncompetitive) of 19.3 ± 1.41 mM and a Ki [3] of 36.3 ± 5.57 mM.

Molecule `OC[C@H]1OC(O)[C@H](O)[C@@H](O)[C@H]1O` (stereo partly shown) [Galactose] has a Ki ([4]; competitive) of 2.35 ± 0.05 mM and a Km [5] of 15.5 ± 1.8 mM.

B1: Galactokinase (Ruminiclostridium cellulolyticum H10) (protein)
chain: MQKNYDELKKKFCRIYGGSEEDLRIFSGPGRVNLIGEHIDYCGGFVFPAALSLDSTVIARINNDNTLRVAATDLPDRVEVELDKLESAKSLKWGNYQAGVAFMLQDAGYRLVGVDMLFHDTVPLGSGLSSSAAIELATAVTLVTLSNEVYGITKPIDMVEMAVLGQRTENEFCGVSCGIMDQFASAMGKKDHAILLDCGTLEYKYLPLKLDGYKIVLGNTKKKRALGESKYNERVRECAEGLKILQKYLPNKRNLCDITVSEFEQYKSMIEDEVIKKRVTHVISENDRVLRAAEALKRNDLEELGRLLVEANDSIRDLYEVTGKELDTMTAEAMKVEGVLGARMTGAGFGGCTVNIVPEDKVDLFIQQVGENYKEQTGITPEFYVSEISDGAREIKI
notes: C-terminal 6xHis tag (pET28a-3238), E. coli BL21(DE3)
B1 was tested, and the Km [6] was 0.99 ± 0.13 mM, the kcat [6] was 1,704 ± 75 IU μmol^−1 and the Km [7] was 13.71 ± 2.42 mM. For the same molecule, the kcat [7] was 4,853 ± 419 IU μmol^−1.

B2: Hexokinase (Ruminiclostridium cellulolyticum H10) (protein)
chain: MGSKLEIVQDVINAFEVNKESMLRTAMLFKETMEKSLNGEKTCLKMLPSYIGKPTGKEQGTFMTIDMGGTNFRCTKYKINNGNFEKVGEIKQKLINKEKNYDLTKSDSDEKQLFGFMAECIGELLEPEESLYLGNTFSFPCRQEGINDAYLIQWTKEITTSGVVGQNINKLLEQSLKEKNINVKPVAILNDTVGTLLVAMYSYQTADIGSIMGTGHNTCYLENNHPLNGQKMIVNIESGNYNVGLPVTKYDEIIDKNSQIPGAQLLEKMVSGYYMGSLLKEVCKDLYKNNALFTNEDVDIDAFFNQNFNALMVENFILYPSNTKEQYKCSIEDAEIVKRVSEAILKRTVRLVAVSHMGILFHQENSGTSVNNEHVIAIDGTIYEKMPNAPQLMKEAFREALGDDASNIEIRLVKDGSGLGAAIAAAFAVTQ
notes: C-terminal 6xHis tag (pET28a-3221), E. coli BL21(DE3)
With B2 the Km [8] was 0.40 ± 0.07 mM, the kcat [8] was 11,160 ± 543 IU μmol^−1 and the Km [9] was 32.2 ± 7.4 mM. The kcat [9] was 8,781 ± 1,418 IU μmol^−1.

B3: α-Phosphoglucomutase (Ruminiclostridium cellulolyticum H10) (protein)
chain: MEYLSKLNFWLDNEYFDQDTKNELLSIKNNAKEVEDRFYKSLEFGTGGLRGIIGAGTNRINIYTVRVASQGLANYINQMGKQDKGIVIAYDPRFMSPEFSLEAAKVFCANGIKAYLFDELRPTPQLSFAVRYLKAAAGVVVTASHNPKQYNGYKVYGEDGGQLSIDGSNAVISEINKITDITKVNIISKEDAASKGLLQIIGSEIDDAYIEMLKKLRINKDAVSKVADTFKIVYTPLHGAGNKPVRRILAESGFKEVLVVKEQELPDSQFSTVKSPNPEERSAFELAIKLASDNNVDLIIGTDPDSDRVGVVVRKNDGEYAVLTGNQTGCLLLEYILTAMKEEGKLPANGFVVKTIVTTELARIIADFYNVELVEVLTGFKFIGEQIKLRDENGNQKYLFGFEESYGYLAGTDVRDKDAVVASMLVAEMAAYYKVKGISLYDALTNLYEKYGYFVEGISSFTLEGKDGVMKIKEALTTMRKTKYESFGGIKVKAIRDYQKSERHVIASGATEKITLPESDVLYFEMEDGSWFCVRPSGTEPKIKIYYGVSDRTLNLSQDKLEKFKAGVLDVIKPLL
notes: C-terminal 6xHis tag (pET28a-1417), E. coli BL21(DE3)
For B3, the Km [10] was 0.155 ± 0.055 mM and the kcat [10] was 1,768 ± 19 IU μmol^−1.

B4: Xylose isomerase (Ruminiclostridium cellulolyticum H10) (protein)
chain: MSEVFSGISNIKFEGSGSDNPLAFKYYDPKAVIGGKTMEEHLRFAVAYWHTFAAPGADMFGAGSYVRPWNTMSDPLEIAKYKVEANFEFIEKLGAPFFAFHDRDIAPEGDTLAETNKNLDTIVSVIKDRMKSSPVKLLWGTTNAFGNPRFMHGASTSPNADIFAYAAAQVKKAMEITKELGGENYVFWGGREGYETLLNTDMKLELDNLARFLKMAVDYAKEIGFDGQFLIEPKPKEPTKHQYDFDTATVIGFLKTYGLDPYFKMNIEANHATLAGHTFQHELAMCRINDMLGSIDANQGDVMLGWDTDQFPTNLYDATLAMVEVLKAGGLKKGGLNFDSKVRRGSFEPSDLFYGHIAGMDTFAKGLIIANKIVEDGKFDAFVADRYSSYTNGIGKDIVEGKVGFKELEQYALTAKIQNKSGRQEMLEALLNQYILETK
notes: C-terminal 6xHis tag (plasmid printed as pET28a-3439), E. coli BL21(DE3)
Work on B4 yielded a Km [11] of 2.0 ± 0.2 mM and a kcat [11] of 63.5 ± 1.8 IU μmol^−1.
